The target in experiment [1] is 3E7 antibody. Put plainly: Solution radioimmunoassay, inhibition of [125I]b-endorphin binding to mAb 3E7. The settings on record: for IC50: geometric mean, 30 pM [125I]b-endorphin, 20% tracer bound, 18 hr. incubation, 0.25 μg/ml 3E7; for Affinity Relative to YGGFL (SEQ ID NO: 125): relative to YGGFL = 1. The protocol: The peptides were synthesized according to well known protocols, as described in, for example, Merrifield, Science 232:341-347 (1986), incorporated by reference herein. A solution radioimmunoassay was used to estimate the binding affinities of peptides for mAb 3E7. Solution radioimmunoassay using [^125I]b-endorphin (20,000 cpm) and purified 3E7 antibody (0.25 μg/ml) was conducted as described by Meo et al., supra, with the exception that the final volume was 150 μl. Antibody-bound and free [^125I]b-endorphin were separated by addition of activated charcoal followed by centrifugation, as described in Ghazarassian et al., Life Sciences 27:75-86 (1980). Antibody-bound [^125I]b-endorphin in the supernatant was measured in a gamma counter. […] J. Physiol. 235:E97-E102 (1978).

For experiment [2], the system named is Monoclonal antibody 3E7. The note with it: Meo et al., Herz et al., Gramsch et al.; cited from earlier work.
Experiment [3] has as its target Monoclonal antibody 3E7. The experiment in a line: solution RIA, 30 pM tracer, 18 hr incubation.
In experiment [4] the target is Monoclonal antibody 3E7. The experiment in a line: solution RIA, displacement of [125I]b-endorphin from mAb 3E7. (In a radioligand displacement assay an active substance lowers the binding of a labelled ligand.)
In experiment [5] the target is Monoclonal antibody 3E7. Put plainly: binding experiments with mAb 3E7 and [3H]YGGFL, room temperature.

Where no end group is shown, it is not given here. Some results are limits rather than exact numbers.

Consider “YGGFL [Tyr-Gly-Gly-Phe-Leu, reference compound]”, for which, in experiment [1], the half-inhibitory concentration (IC50) (usually the concentration at which inhibition is half-maximal) is 7.1 nM and the “Affinity Relative to YGGFL (SEQ ID NO: 125)” value came to 1. Further, the “binding to antibody 3E7” value in experiment [2] is “binds tightly”.

Consider “YGGF [Tyr-Gly-Gly-Phe, reference compound]”, for which, in experiment [1], the half-inhibitory concentration (IC50) is 190 nM and the “Affinity Relative to YGGFL (SEQ ID NO: 125)” value is recorded as 0.037.

Turning to YGGWAG [YGGWAG], in experiment [1], the IC50 amounted to 7800 nM and the “Affinity Relative to YGGFL (SEQ ID NO: 125)” value was 0.00091.

Regarding YGFWGM [YGFWGM], in experiment [1], the IC50 amounted to 350 nM and the “Affinity Relative to YGGFL (SEQ ID NO: 125)” value is on record as 0.020.

Take YGNWTY [YGNWTY]: in experiment [1], the 50% inhibitory concentration (IC50) was determined as 7800 nM and the “Affinity Relative to YGGFL (SEQ ID NO: 125)” value is listed as 0.00091.

Turning to “YGGFM: met-enkephalin, natural opioid peptide”, the “binding to antibody 3E7” value in experiment [2] is recorded as “binds tightly”.

Regarding “[125I-tyr28]b-endorphin (from UniProt P01189 237-267) (peptide)”, in experiment [3], the tracer bound came out at 20%.

Consider YGPFWS [YGPFWS], for which, in experiment [1], the half-maximal inhibitory concentration (IC50) stood at 1900 nM and the “Affinity Relative to YGGFL (SEQ ID NO: 125)” value was 0.0037.

YGGFPD [YGGFPD]: in experiment [1], the IC50 came out at 2300 nM and the “Affinity Relative to YGGFL (SEQ ID NO: 125)” value turned out to be 0.0031.

Molecule GFL (peptide) displayed an Affinity Relative to YGGFL in experiment [4] of less than 7.1e-06.

Turning to YGG (peptide), in experiment [4], the Affinity Relative to YGGFL is less than 7.1e-06.

Consider YAGFAQ [YAGFAQ], for which, in experiment [1], the IC50 was 8300 nM and the “Affinity Relative to YGGFL (SEQ ID NO: 125)” value was found to be 0.00086.

For GGF (peptide), in experiment [4], the Affinity Relative to YGGFL is less than 7.1e-06.

B1: YGFWGM (peptide)
peptide: YGFWGM
Regarding B1, in experiment [4], the Affinity Relative to YGGFL was 0.02 and the concentration for half-maximal inhibition (IC50) stood at 350 nM.

B2: GGFL (peptide)
peptide: GGFL
As for B2, the Affinity Relative to YGGFL in experiment [4] was less than 7.1e-06.

B3: YGGWAG (peptide)
peptide: YGGWAG
For the molecule B3, in experiment [4], the Affinity Relative to YGGFL amounted to 0.00091 and the IC50 is 7800 nM.

B4: YGGF (peptide)
peptide: YGGF
In experiment [4], B4 showed an Affinity Relative to YGGFL of 0.037 and an IC50 of 190 nM.

B5: YAGFAQ (peptide)
peptide: YAGFAQ
In experiment [4], B5 showed an Affinity Relative to YGGFL of 0.00086 and an IC50 of 8300 nM.

B6: YGGFPD (peptide)
peptide: YGGFPD
In the case of B6, in experiment [4], the Affinity Relative to YGGFL amounted to 0.0031 and the IC50 was found to be 2300 nM.

B7: YGNWTY (peptide)
peptide: YGNWTY
In experiment [4], B7 returned an Affinity Relative to YGGFL of 0.00091 and a concentration for half-maximal inhibition (IC50) of 7800 nM.

B8: YGGFL (peptide)
peptide: YGGFL
On to B8, for which, in experiment [4], the Affinity Relative to YGGFL came to 1 and the IC50 was 7.1 nM. Besides, in experiment [5], the dissociation t1/2 turned out to be 45 s.

B9: YGPFWS (peptide)
peptide: YGPFWS
On to B9, for which, in experiment [4], the Affinity Relative to YGGFL was determined as 0.0037 and the IC50 was 1900 nM.

The record behind these values is US7553617B1, “Peptide library and screening systems” (Affymax, Inc., priority 1990, dated 2009).
